Biological target: GST-fused Par-6 CRIB-PDZ (UniProt O97111)
Assay: pull-down

fold increase of binding with Par-3 PDZ2 against without: > 20 fold
Substance: Par complex ΔCRIB-PDZ (full length aPKC with the Par-6 PB1 domain) (from UniProt A1Z9X0 1-606)

Source: publication PMC11507878
